Results published in patent US6747136.

Target: recombinant conformational HCV E2 antigen (HCV genotype 1a) (hepatitis C virus, HCV1 (genotype 1a)) (UniProt P26664)
Experiment: NOB assay: control Fab pre-mixed with E2 1a, E2 binding to MOLT-4 cells by flow cytometry; 50% reduction titer, Exp. I

Chain of recombinant conformational HCV E2 antigen (HCV genotype 1a) (hepatitis C virus, HCV1 (genotype 1a)) (P26664 383-715): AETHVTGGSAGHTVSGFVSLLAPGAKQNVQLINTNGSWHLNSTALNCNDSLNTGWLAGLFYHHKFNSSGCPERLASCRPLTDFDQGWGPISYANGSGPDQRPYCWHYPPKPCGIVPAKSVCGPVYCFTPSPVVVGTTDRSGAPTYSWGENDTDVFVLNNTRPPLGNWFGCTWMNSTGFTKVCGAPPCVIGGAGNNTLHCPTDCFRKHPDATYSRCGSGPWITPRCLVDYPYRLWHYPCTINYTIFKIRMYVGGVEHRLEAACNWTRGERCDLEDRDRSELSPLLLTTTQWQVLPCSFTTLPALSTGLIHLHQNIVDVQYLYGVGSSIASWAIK

IC50: > 10 µg/mL
Substance: negative control Fab clone b12 directed to HIV-1 envelope glycoprotein gp120
